Test results as given in patent US20230365684A1 (Janssen / Centocor, published 2023).
Where two headings read alike, the source gives them in different places. One block for each binder: values may come before it.

Legend:
[1] = target: T1, human CD33 on cells (MOLM-13, Kasumi-1, OCI-AML-3, Kasumi-3) (human, UniProt P20138 18-364); assay: FACS binding on OCI-AML-3 cells
T1 construct: whole, on cells; also called CD33 expressing cells; CD33+ cell lines

[2] = target: T1, human CD33 on cells (MOLM-13, Kasumi-1, …); assay: FACS binding on Kasumi-1 cells
[3] = target: T1, human CD33 on cells (MOLM-13, Kasumi-1, …); assay: FACS binding on MOLM-13 cells
[4] = target: T1, human CD33 on cells (MOLM-13, Kasumi-1, …); assay: flow cytometry on OCI-AML-3 cells, 4 °C, detection with PE goat F(ab')2 anti-human IgG-Fc [contd]
[5] = target: T1, human CD33 on cells (MOLM-13, Kasumi-1, …); assay: flow cytometry on MOLM-13 cells, 4 °C, serial dilutions of the antibody
Protocol: (§1) Cells were harvested, washed once with PBS and then stained with the fixable viability dye at room temperature for 30 min. Following incubation, cells were washed twice with FACS buffer (PBS+2% FBS). Cells were then used for binding assay with test antibodies. 100,000 cells were stained with the test antibodies in a 100 ul staining volume. Antibodies for staining were diluted in FACS buffer and incubated with the cells for 40 mins on ice, followed by washing 2X with FACS buffer. Test antibodies were then detected using the PE conjugated Goat F(ab′)2 Anti-Human IgG-Fc (ab98596; Abcam) for 40 minutes on ice. Following washing, data was acquired on the Novocyte flow cytometer (ACEA). Cells were gated on FSC/SSC, followed by live cell gating and doublet discrimination. Data was analyzed using Flow Jo (BD).
(§2) Median fluorescence intensity values were used to plot a 4-parameter non-linear regression analysis curve after subtracting the MFI of the secondary only sample.
(§3) The binding EC₅₀ values of CD33 antibodies to high (MOLM-13), medium (Kasumi-1) and low (OCI-AML-3) cell lines were assayed. Binding was carried out at 4° C. with serial dilutions of the antibody.

[6] = target: T1, human CD33 on cells (MOLM-13, Kasumi-1, …); assay: flow cytometry on OCI-AML-3 cells, 4 °C, serial dilutions of the antibody
Protocol: as §1, §2, §3

[7] = target: T1, human CD33 on cells (MOLM-13, Kasumi-1, …); assay: flow cytometry on Kasumi-1 cells, 4 °C, serial dilutions of the antibody
Protocol: as §1, §2, §3

[8] = target: T1, human CD33 on cells (MOLM-13, Kasumi-1, …); assay: flow cytometry on MOLM-13 cells, 4 °C, detection with PE goat F(ab')2 anti-human IgG-Fc
Protocol: MOLM-13, Kasumi-1, OCI-AML-3 and HDLM-2 cells were stained for viability by fixable violet dead cell stain (L34955, ThermoFisher) according to the manufacturer's protocol. Cells were harvested, washed once with PBS and then stained with the fixable viability dye at room temperature for 30 min. Following incubation, cells were washed twice with FACS buffer (PBS+2% FBS). Cells were then used for binding assay with test antibodies. 100,000 cells were stained with the test antibodies in a 100 ul staining volume. Antibodies for staining were diluted in FACS buffer and incubated with the cells for 40 mins on ice, followed by washing 2X with FACS buffer. Test antibodies were then detected using the PE conjugated Goat F(ab′)2 Anti-Human IgG-Fc (ab98596; Abcam) for 40 minutes on ice. Following washing, data was acquired on the Novocyte flow cytometer (ACEA). […] Data was analyzed using Flow Jo (BD).
as §2
Binding was performed by incubating the cells with the serial dilutions of the CD33 antibody at 4° C. followed by detection with PE conjugated Goat F(ab′)2 Anti-Human IgG-Fc antibody. […] Median fluorescence intensity (MFI) versus log concentration of antibody are plotted.

[9] = target: T2, human CD33 (full length ECD), recombinant (human, UniProt P20138 18-259); assay: SPR (Biacore 8K), antibody captured by anti-human Fc, antigen in solution
T2 construct: extracellular domain; Tag or HSA fusion partner unknown; also called hu CD33 (FL ECD); hCD33-FL ECD
T2 sequence (P20138 18-259): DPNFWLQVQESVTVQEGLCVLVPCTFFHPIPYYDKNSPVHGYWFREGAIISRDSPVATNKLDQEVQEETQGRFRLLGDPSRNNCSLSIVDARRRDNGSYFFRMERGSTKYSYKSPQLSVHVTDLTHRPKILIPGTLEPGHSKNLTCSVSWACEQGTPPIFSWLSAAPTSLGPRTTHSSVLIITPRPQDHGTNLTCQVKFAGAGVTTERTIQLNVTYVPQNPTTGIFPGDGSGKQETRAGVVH
Protocol: (§4) Affinities (KD) for the interaction of anti-CD33 antibodies human CD33 (full length ECD and IgC2 domain) were obtained by SPR. The anti-CD33 antibodies were captured using an anti-human Fc antibody and the antigens were injected in solution.
(§5) The binding affinity of anti-CD33 antibodies and Llama vHHs to the recombinant human CD33 (FL ECD or IgC2 domain) was determined by surface plasmon resonance (SPR) using Biacore 8K instrument. […] The association and dissociation were monitored for 2 and 30 minutes, respectively, using a flow rate of 50 μL/min. Raw binding data was referenced by subtracting the analyte binding signals from blanks and analyzed using a 1:1 Langmuir binding model using the Biacore software to obtain the kinetics which were used to calculate the binding affinity.

[10] = target: T3, human CD33 IgC2 domain, recombinant (human, UniProt P20138 136-259); assay: as above
T3 construct: domain: IgC2; also called hu CD33 (IgC2); hCD33-IgC2
T3 sequence (P20138 136-259 limits assumed): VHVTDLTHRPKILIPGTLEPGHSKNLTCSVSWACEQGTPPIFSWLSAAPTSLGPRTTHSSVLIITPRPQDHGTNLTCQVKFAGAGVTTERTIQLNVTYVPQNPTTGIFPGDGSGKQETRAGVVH
Protocol: as §4, §5

[11] = target: T1, human CD33 on cells (MOLM-13, Kasumi-1, …); assay: flow cytometry on OCI-AML-3 cells, 4 °C, detection with PE goat F(ab')2 anti-human IgG-Fc [contd]; remark: listed apart in the source
[12] = target: T3, human CD33 IgC2 domain, recombinant; assay: SPR, Biacore 8K, 25 °C, vHH-mono-Fc captured by anti-Fc antibody, CD33-hu-domain injected as analyte, 1:1 binding model
Protocol: as §5
(§6) The anti-CD33 Llama vHHs on a mono-Fc backbone were captured using an anti-human Fc antibody and the antigens were injected in solution.

[13] = target: T2, human CD33 (full length ECD), …; assay: SPR, Biacore 8K, 25 °C, vHH-mono-Fc captured by anti-Fc antibody, CD33-hu-FL injected as analyte, 1:1 binding model [contd]
Protocol: as §5, §6

[14] = target: T2, human CD33 (full length ECD), …; assay: SPR (Biacore 8K), vHH-mono-Fc captured by anti-human Fc, antigen in solution
Protocol: as §5, §6

[15] = target: T3, human CD33 IgC2 domain, recombinant; assay: as above
Protocol: as §5, §6

[16] = target: T3, human CD33 IgC2 domain, recombinant; assay: SPR, Biacore 8K, 25 °C, vHH-mono-Fc captured by anti-Fc antibody, CD33-hu-domain injected as analyte, 1:1 binding model [contd]
Protocol: as §5, §6

[17] = target: T2, human CD33 (full length ECD), …; assay: SPR, Biacore 8K, 25 °C, vHH-mono-Fc captured by anti-Fc antibody, CD33-hu-FL injected as analyte, 1:1 binding model [contd]; remark: listed apart in the source
Protocol: as §5, §6

T1 sequence (P20138 18-364): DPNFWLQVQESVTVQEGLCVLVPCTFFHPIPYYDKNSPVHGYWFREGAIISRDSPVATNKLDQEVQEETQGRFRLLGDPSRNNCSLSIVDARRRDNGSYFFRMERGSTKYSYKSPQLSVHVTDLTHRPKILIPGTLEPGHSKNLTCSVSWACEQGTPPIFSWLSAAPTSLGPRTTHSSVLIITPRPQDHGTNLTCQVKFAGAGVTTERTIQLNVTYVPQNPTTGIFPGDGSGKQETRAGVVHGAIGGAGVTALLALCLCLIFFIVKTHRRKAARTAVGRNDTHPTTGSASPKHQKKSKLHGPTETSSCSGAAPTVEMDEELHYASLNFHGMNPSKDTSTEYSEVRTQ

EC50 [1]: 16.4 nM
EC50 [2]: 82.2 nM
EC50 [3]: 134 nM
B1: C33B904 (antibody, V domains shown)
VH: EVQLVESGGGLVQPGRSLRLSCAASGFTFDDYAMHWVRQAPGKGLEWVSGIGWSGGSIVYADSVKGRFTISRDNAKNSLYLQMNSLRAEDTALYYCAKDSPYGDFFDYWGQGTLVTVSS
VL: DIVMTQSPDSLAVSLGERATINCKSSQTVFYSSNNKNYLAWYQQKPGQPPKLLISWASTRKSGVPDRFSGSGSGTDFTLTVSSLQAEDVAVYYCQHYYSTPYTFGQGTKLEIK
notes: also called anti-CD33 antibody (clone C33B904); anti-CD33 clone C33B904

EC50 (read off the curve) [4]: ~0.08 µg/mL
EC50 [5]: 0.5 nM
EC50 [6]: 0.46 nM
EC50 [7]: 17.1 nM
EC50 (read off the curve) [8]: ~0.08 µg/mL
B2: C33B836.006 (antibody, V domains shown)
VH: QVQLVQSGSELRKPGASVKVSCKASGYTFTNYAMNWVRQAPGQGLEWMGWINTNTGNPTYAQGFTGRFVFSLDTSVSSAYLQISSLKAEDTAMYYCATDRDRGTDYWGQGTLVTVSS
VL: QSALTQPASVSGSPGQSITISCTGTSSDVGDYNYVSWYQQHPGKVPKLMIYDVSNRPSGVSNRFSGSMSGNTASLTISGLQAEDEADYYCSSYSSSSALEVFGGGTKLTVL
notes: also called sC33B836.006

Kd [9]: > 10 nM
EC50 [5]: 32.7 nM
EC50 [7]: 73.4 nM
B3: C33B1522 (antibody, V domains shown)
VH: QVQLQESGPGLVKPSETLSLTCTVSGGSISSYYWGWIRQPPGKGLEWIGYIYYSGSTNYNPSLKSRVTISVDTSKNQFSLKLSSVTAADTAVYYCARMWEILGFDPWGQGTLVTVS
VL: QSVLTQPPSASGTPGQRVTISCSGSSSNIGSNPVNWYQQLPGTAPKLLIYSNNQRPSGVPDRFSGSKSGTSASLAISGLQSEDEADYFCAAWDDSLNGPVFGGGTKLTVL
binding result [10]: no binding (tested: 40 nM-1.6 nM CD33 antigen)

EC50 (read off the curve) [11]: ~0.09 µg/mL
EC50 [5]: 56 nM
EC50 [6]: 0.6 nM
B4: C33B1477 (antibody, V domains shown)
VH: EVQLVESGGGLVQPGGSLKVSCEASGFTFSVSAIHWVRQASGKGLEWIGRIRSKGNSYATAYAASVKGRFTISRDDSKNTAYLQMDSLKTEDTAVYYCTRHNDKWNYYGLDVWGQGTTVTVSS
VL: DIVMTQSPLSLPVTPGEPASISCKSSQSLLFSNGYKFLDWYLQRPGQSPQLLIYLGSYRASGVPDRFSGSGSGTDFTLKISRVEAEDVGLYYCMQALQTPPTFGGGTKVEIK
notes: also called sCD33B1477

EC50 (read off the curve) [4]: ~2 µg/mL
EC50 [5]: 35.6 nM
EC50 [6]: 15.3 nM
EC50 [7]: 0.13 nM
B5: C33B806.006 (antibody, V domains shown)
VH: QLQLQESGPGLVKPSETLSLTCTVSGGSISSSSYYWGWIRQPPGKGLDWIGSINYSGSTYYNPSLKSRVTISVDTSKIQFSLKLRSVTAADTAVYYCARLDGYESPFDYWGQGTLVTVSS
VL: DIQMTQSPSSVSASVGDRVTITCRASQGISSWLAWYQQKPGKAPKLLIYAASSLQSGVPSRFSGSGSGTDFTLTISSLQPEDFATYYCQQANSFPFTFGPGTKVDIK

kon [12]: 962000 M⁻¹ s⁻¹
koff [13]: 0.00117 s⁻¹
kon [13]: 1.38e+06 M⁻¹ s⁻¹
Kd [14]: 0.847 nM
Kd [15]: 3.38 nM
B6: C33B1780 (llama vHH on mono-Fc backbone) (Fc fusion)
chain: EVQLVESGGGLVQPGGSLRLSCAVFGFSLSDYAIGWFRQAPGKEREKVSCISESDGRTYLSDSVKSRFTISRDNGKNTVYLQMNNLKPDDTGVYYCATVDQAISESSYHCEKGFGSWGQGTQVTVSS
notes: not shown: mono-Fc backbone

koff [16]: 0.0034 s⁻¹
kon [16]: 1.03e+06 M⁻¹ s⁻¹
Kd [14]: 0.661 nM
Kd [15]: 3.31 nM
koff [17]: 0.000928 s⁻¹
kon [17]: 1.4e+06 M⁻¹ s⁻¹
B7: C33B1785 (llama vHH on mono-Fc backbone) (Fc fusion)
chain: QVQLVESGGGSVQPGGSLRLSCAVFGFSLSDYAIGWFRQAPGKEREKVSCISESDGRTYLSDSVKSRFTISRDNGKNTVYLQMNNLKPDDTGVYYCATVDQAISESSYHCEKGFGSWGQGTQVTVSS
notes: not shown: mono-Fc backbone
